In publication PMC12102759 (2025):

B1: PIP5K1C peptide 642-657 (Phosphatidylinositol 4-phosphate 5-kinase type-1 gamma), 16-mer library wild type / TLN1 PTB (TLN1 Phosphotyrosine-binding (PTB) domain, residues 309-401) (parent complex)
chain 1: TDERSWVYSPLHYSAQ
chain 2: GVSFFLVKEKMKGKNKLVPRLLGITKECVMRVDEKTKEVIQEWNLTNIKRWAASPKSFTLDFGDYQDGYYSVQTTEGEQIAQLIAGYIDIILK

Variants of: B1
Test: proteomic peptide phage display deep mutational scan (ProP-PD DMS): M13 P8 16-mer library selected against immobilised GST-tagged bait for four days (rounds), NGS of the eluted pools per day and pseudo-replica; bait immobilised on MaxiSorp plates (10 µg), library pre-cleared on GST, 2 h binding at 4 °C, five washes; one round per day, days 1-4; value from days 2 and 3

Variant | screen value
chain 1 S14L | 0.00127 average fractional NGS count over selection days 2 and 3 (reads of this peptide / all reads for the bait, averaged over …
chain 1 S14D | 0.00662 average fractional NGS count over selection days 2 and 3 (reads of this peptide / all reads for the bait, averaged over …
chain 1 S14P | 0.000401 average fractional NGS count over selection days 2 and 3 (reads of this peptide / all reads for the bait, averaged over …
chain 1 S14Y | 0.00168 average fractional NGS count over selection days 2 and 3 (reads of this peptide / all reads for the bait, averaged over …
chain 1 S14K | 0.000852 average fractional NGS count over selection days 2 and 3 (reads of this peptide / all reads for the bait, averaged over …
chain 1 S14A | 0.00151 average fractional NGS count over selection days 2 and 3 (reads of this peptide / all reads for the bait, averaged over …
chain 1 L11F | 0.000354 average fractional NGS count over selection days 2 and 3 (reads of this peptide / all reads for the bait, averaged over …
chain 1 L11M | 0.000374 average fractional NGS count over selection days 2 and 3 (reads of this peptide / all reads for the bait, averaged over …
chain 1 L11W | 0.000722 average fractional NGS count over selection days 2 and 3 (reads of this peptide / all reads for the bait, averaged over …
chain 1 L11G | 0.000282 average fractional NGS count over selection days 2 and 3 (reads of this peptide / all reads for the bait, averaged over …
chain 1 L11H | 0.000309 average fractional NGS count over selection days 2 and 3 (reads of this peptide / all reads for the bait, averaged over …
chain 1 T1N | 0.00021 average fractional NGS count over selection days 2 and 3 (reads of this peptide / all reads for the bait, averaged over …
chain 1 T1H | 0.000767 average fractional NGS count over selection days 2 and 3 (reads of this peptide / all reads for the bait, averaged over …
chain 1 T1A | 0.00341 average fractional NGS count over selection days 2 and 3 (reads of this peptide / all reads for the bait, averaged over …
chain 1 T1S | 0.00255 average fractional NGS count over selection days 2 and 3 (reads of this peptide / all reads for the bait, averaged over …
chain 1 T1Y | 0.000499 average fractional NGS count over selection days 2 and 3 (reads of this peptide / all reads for the bait, averaged over …
chain 1 T1M | 0.000328 average fractional NGS count over selection days 2 and 3 (reads of this peptide / all reads for the bait, averaged over …
chain 1 T1Q | 0.00112 average fractional NGS count over selection days 2 and 3 (reads of this peptide / all reads for the bait, averaged over …
chain 1 T1L | 0.000574 average fractional NGS count over selection days 2 and 3 (reads of this peptide / all reads for the bait, averaged over …
chain 1 T1V | 0.00105 average fractional NGS count over selection days 2 and 3 (reads of this peptide / all reads for the bait, averaged over …
chain 1 T1R | 0.00306 average fractional NGS count over selection days 2 and 3 (reads of this peptide / all reads for the bait, averaged over …
chain 1 V7R | 0.00391 average fractional NGS count over selection days 2 and 3 (reads of this peptide / all reads for the bait, averaged over …
chain 1 V7K | 0.00287 average fractional NGS count over selection days 2 and 3 (reads of this peptide / all reads for the bait, averaged over …
chain 1 V7Q | 0.00122 average fractional NGS count over selection days 2 and 3 (reads of this peptide / all reads for the bait, averaged over …
chain 1 V7N | 0.0129 average fractional NGS count over selection days 2 and 3 (reads of this peptide / all reads for the bait, averaged over …

Variant | screen value
chain 1 V7S | 0.00114 average fractional NGS count over selection days 2 and 3 (reads of this peptide / all reads for the bait, averaged over …
chain 1 V7M | 0.0016 average fractional NGS count over selection days 2 and 3 (reads of this peptide / all reads for the bait, averaged over …
chain 1 E3F | 0.00327 average fractional NGS count over selection days 2 and 3 (reads of this peptide / all reads for the bait, averaged over …
chain 1 E3A | 0.000271 average fractional NGS count over selection days 2 and 3 (reads of this peptide / all reads for the bait, averaged over …
chain 1 E3P | 0.000178 average fractional NGS count over selection days 2 and 3 (reads of this peptide / all reads for the bait, averaged over …
chain 1 E3N | 0.00147 average fractional NGS count over selection days 2 and 3 (reads of this peptide / all reads for the bait, averaged over …
chain 1 E3I | 0.00159 average fractional NGS count over selection days 2 and 3 (reads of this peptide / all reads for the bait, averaged over …
chain 1 E3Y | 0.00103 average fractional NGS count over selection days 2 and 3 (reads of this peptide / all reads for the bait, averaged over …
chain 1 E3T | 0.00106 average fractional NGS count over selection days 2 and 3 (reads of this peptide / all reads for the bait, averaged over …
chain 1 E3R | 0.000973 average fractional NGS count over selection days 2 and 3 (reads of this peptide / all reads for the bait, averaged over …
chain 1 E3M | 0.0019 average fractional NGS count over selection days 2 and 3 (reads of this peptide / all reads for the bait, averaged over …
chain 1 E3L | 0.00278 average fractional NGS count over selection days 2 and 3 (reads of this peptide / all reads for the bait, averaged over …
chain 1 E3K | 0.00138 average fractional NGS count over selection days 2 and 3 (reads of this peptide / all reads for the bait, averaged over …
chain 1 E3Q | 0.000394 average fractional NGS count over selection days 2 and 3 (reads of this peptide / all reads for the bait, averaged over …
chain 1 S5E | 0.00528 average fractional NGS count over selection days 2 and 3 (reads of this peptide / all reads for the bait, averaged over …
chain 1 S5F | 0.000252 average fractional NGS count over selection days 2 and 3 (reads of this peptide / all reads for the bait, averaged over …
chain 1 S5T | 0.0143 average fractional NGS count over selection days 2 and 3 (reads of this peptide / all reads for the bait, averaged over …
chain 1 S5Y | 0.000589 average fractional NGS count over selection days 2 and 3 (reads of this peptide / all reads for the bait, averaged over …
chain 1 S5A | 0.0049 average fractional NGS count over selection days 2 and 3 (reads of this peptide / all reads for the bait, averaged over …
chain 1 S5M | 0.00508 average fractional NGS count over selection days 2 and 3 (reads of this peptide / all reads for the bait, averaged over …
chain 1 S5W | 0.000786 average fractional NGS count over selection days 2 and 3 (reads of this peptide / all reads for the bait, averaged over …
chain 1 S5V | 0.0006 average fractional NGS count over selection days 2 and 3 (reads of this peptide / all reads for the bait, averaged over …
chain 1 R4W | 0.000409 average fractional NGS count over selection days 2 and 3 (reads of this peptide / all reads for the bait, averaged over …
chain 1 R4H | 0.00121 average fractional NGS count over selection days 2 and 3 (reads of this peptide / all reads for the bait, averaged over …
chain 1 R4N | 0.00121 average fractional NGS count over selection days 2 and 3 (reads of this peptide / all reads for the bait, averaged over …

Variant | screen value
chain 1 R4L | 0.00628 average fractional NGS count over selection days 2 and 3 (reads of this peptide / all reads for the bait, averaged over …
chain 1 R4V | 0.00216 average fractional NGS count over selection days 2 and 3 (reads of this peptide / all reads for the bait, averaged over …
chain 1 R4P | 0.000771 average fractional NGS count over selection days 2 and 3 (reads of this peptide / all reads for the bait, averaged over …
chain 1 R4E | 0.00181 average fractional NGS count over selection days 2 and 3 (reads of this peptide / all reads for the bait, averaged over …
chain 1 R4K | 0.000222 average fractional NGS count over selection days 2 and 3 (reads of this peptide / all reads for the bait, averaged over …
chain 1 R4F | 0.00144 average fractional NGS count over selection days 2 and 3 (reads of this peptide / all reads for the bait, averaged over …
chain 1 R4T | 0.000696 average fractional NGS count over selection days 2 and 3 (reads of this peptide / all reads for the bait, averaged over …
chain 1 R4Q | 0.00324 average fractional NGS count over selection days 2 and 3 (reads of this peptide / all reads for the bait, averaged over …
chain 1 D2T | 0.00067 average fractional NGS count over selection days 2 and 3 (reads of this peptide / all reads for the bait, averaged over …
chain 1 D2P | 0.00102 average fractional NGS count over selection days 2 and 3 (reads of this peptide / all reads for the bait, averaged over …
chain 1 D2S | 0.00166 average fractional NGS count over selection days 2 and 3 (reads of this peptide / all reads for the bait, averaged over …
chain 1 D2Y | 0.000691 average fractional NGS count over selection days 2 and 3 (reads of this peptide / all reads for the bait, averaged over …
chain 1 D2Q | 0.00198 average fractional NGS count over selection days 2 and 3 (reads of this peptide / all reads for the bait, averaged over …
chain 1 D2W | 0.0007 average fractional NGS count over selection days 2 and 3 (reads of this peptide / all reads for the bait, averaged over …
chain 1 D2N | 0.000972 average fractional NGS count over selection days 2 and 3 (reads of this peptide / all reads for the bait, averaged over …
chain 1 D2I | 0.000155 average fractional NGS count over selection days 2 and 3 (reads of this peptide / all reads for the bait, averaged over …
chain 1 Y8V | 0.0101 average fractional NGS count over selection days 2 and 3 (reads of this peptide / all reads for the bait, averaged over …
chain 1 Y8Q | 0.00124 average fractional NGS count over selection days 2 and 3 (reads of this peptide / all reads for the bait, averaged over …
chain 1 Y8K | 0.00106 average fractional NGS count over selection days 2 and 3 (reads of this peptide / all reads for the bait, averaged over …
chain 1 Y8L | 0.0129 average fractional NGS count over selection days 2 and 3 (reads of this peptide / all reads for the bait, averaged over …
chain 1 Y8R | 0.0156 average fractional NGS count over selection days 2 and 3 (reads of this peptide / all reads for the bait, averaged over …
chain 1 Y8F | 0.00543 average fractional NGS count over selection days 2 and 3 (reads of this peptide / all reads for the bait, averaged over …
chain 1 Y8D | 0.00213 average fractional NGS count over selection days 2 and 3 (reads of this peptide / all reads for the bait, averaged over …
chain 1 Y8N | 0.00782 average fractional NGS count over selection days 2 and 3 (reads of this peptide / all reads for the bait, averaged over …
chain 1 Y8P | 0.000696 average fractional NGS count over selection days 2 and 3 (reads of this peptide / all reads for the bait, averaged over …
